From paper PMC4738300, “Physiological lipid composition is vital for homotypic ER membrane fusion mediated by the dynamin-related GTPase Sey1p” (Scientific Reports, 2016) come the findings set out here.

Data set [1] concerns the molecule itself. Briefly: pull-down; GST-Sey1p and His6-Sey1p, 4 uM each, mixed in RB150 (20 mM Hepes-NaOH pH 7.4, 150 mM NaCl, 10% glycerol) with 0.4% Triton X-100, 2 mM MgCl2 and 1 mM GTP, 4 °C; GST-Sey1p isolated on glutathione-Sepharose 4B; SDS-PAGE, Coomassie Blue.
Data set [2] deals with the molecule itself. Kind of data set: proteoliposome docking assay (co-isolation of liposomes on streptavidin beads); biotin-labeled Sey1p proteoliposomes held on streptavidin magnetic beads and Rh-labeled Sey1p proteoliposomes (500 uM lipid each) in RB500 with 2 mM MgCl2 and 1 mM GTP, 30 °C, 30 min; Rh fluorescence of co-isolated liposomes; complete ER-mimicking lipids and four lipid subsets (Table 1).

B1: Sey1p (tagged full-length recombinant Sey1p: GST-His6-3C-Sey1p and His6-3C-Sey1p) (natural protein, S. cerevisiae, UniProt Q99287 1-776, looked up)
chain: MADRPAIQLIDEEKEFHQSALQYFQQCIGNRDVGLDYHVISVFGSQSSGKSTLLNVLFNTNFDTMDAQVKRQQTTKGIWLAHTKQVNTTIEIDNDRPDIFVLDVEGSDGSERGEDQDFERKAALFAIAVSEVLIVNMWEQQIGLYQGNNMALLKTVFEVNLSLFGKNDNDHKVLLLFVIRDHVGVTPLSSLSDSVTRELEKIWTELSKPAGCEGSSLYDYFDLKFVGLAHKLLQEDKFTQDVKKLGDSFVMKGTENYYFKPQYHHRLPLDGWTMYAENCWDQIERNKDLDLPTQQILVARFKTEEISNEALEEFISKYDESIAPLKGNLGSLTSQLVKLKEECLTKYDEQASRYARNVYMEKREALNTKLNSHISGTINEFLESLMEKLWDDLKLEVSSRDKATTSFVESVAAGKSKIEKEFNESMETFKKLGLLISNEEITCKFSDDIEERIKQLRDAELKAKIGRIKKNLVPELKDHVIHLLSHPSKKVWDDIMNDFESTIKDNISAYQVEKDKYDFKIGLSESENAKIYKNIRILAWRTLDTTVHDYLKIDTIVSILRDRFEDVFRYDAEGSPRLWKTEEEIDGAFRVAKEHALEVFEVLSLAVTSDNVEIIPDVPMAEEESGEDNEIYRDNEGVFHSRRFAHILTELQKENVLDQFRRQINITVLDSKRSIITTRTHIPPWIYVLLAVLGWNEFVAVIRNPLFVTLTLILGATFFVIHKFGLWGPVVNVVQSAVGETRTAIKDKLRQFVVEDHEVKESFEMKDFSKNEQKEK
notes: The bait copy is GST-His6-3C-Sey1p (pET-41 Ek/LIC) and the prey copy is His6-3C-Sey1p (pET-30 Ek/LIC); GST is on the bait copy only; The tags were not cleaved in the pull-down; also called GST-Sey1p; His6-Sey1p; source: E. coli Rosetta 2(DE3)pLysS, purified (COSMOGEL His-Accept beads, imidazole elution, dialysis; in 0.4% Triton X-100); not shown: His6, N-terminal, kept; GST, N-terminal, kept
In the case of B1, the binding result in data set [1] was “binds”.

B2: untagged full-length Sey1p reconstituted into proteoliposomes (natural protein, S. cerevisiae)
chain: GPGMADRPAIQLIDEEKEFHQSALQYFQQCIGNRDVGLDYHVISVFGSQSSGKSTLLNVLFNTNFDTMDAQVKRQQTTKGIWLAHTKQVNTTIEIDNDRPDIFVLDVEGSDGSERGEDQDFERKAALFAIAVSEVLIVNMWEQQIGLYQGNNMALLKTVFEVNLSLFGKNDNDHKVLLLFVIRDHVGVTPLSSLSDSVTRELEKIWTELSKPAGCEGSSLYDYFDLKFVGLAHKLLQEDKFTQDVKKLGDSFVMKGTENYYFKPQYHHRLPLDGWTMYAENCWDQIERNKDLDLPTQQILVARFKTEEISNEALEEFISKYDESIAPLKGNLGSLTSQLVKLKEECLTKYDEQASRYARNVYMEKREALNTKLNSHISGTINEFLESLMEKLWDDLKLEVSSRDKATTSFVESVAAGKSKIEKEFNESMETFKKLGLLISNEEITCKFSDDIEERIKQLRDAELKAKIGRIKKNLVPELKDHVIHLLSHPSKKVWDDIMNDFESTIKDNISAYQVEKDKYDFKIGLSESENAKIYKNIRILAWRTLDTTVHDYLKIDTIVSILRDRFEDVFRYDAEGSPRLWKTEEEIDGAFRVAKEHALEVFEVLSLAVTSDNVEIIPDVPMAEEESGEDNEIYRDNEGVFHSRRFAHILTELQKENVLDQFRRQINITVLDSKRSIITTRTHIPPWIYVLLAVLGWNEFVAVIRNPLFVTLTLILGATFFVIHKFGLWGPVVNVVQSAVGETRTAIKDKLRQFVVEDHEVKESFEMKDFSKNEQKEK
notes: three extra N-terminal residues (Gly-Pro-Gly) left after 3C protease cleavage, printed in three-letter code; Inserted by its two C-terminal transmembrane domains into liposomes; Protein-to-lipid ratio 1/500 (mol/mol); also called untagged form of Sey1p; Sey1p proteoliposomes; not shown: His6, N-terminal, cleaved
As to B2, the binding result in data set [2] was “binds”.
